Laboratory results reported in the DeepSol protein solubility set.

Experiment: soluble on expression in E. coli; label from the status in PepcDB or PDB records

Soluble on expression in E. coli, soluble:
MRTDPERFILDNAAIMHPPHVPELRLHLATEAHELWLKTEEELEEIGLPPPFWAFAWAGGQGLARYILDHPESVCGKRVLDFASGSGLVAIAAAKAGAAKVLAADIDPWTETAIRLNAALNGVDIGFTGLDLVGKPVDADVLLAGDVFYDRAFADLLVPWFVELTEKGMIVLVGDPGRAYLPKERLRAEATYQVPVTRALEDSDVKKTTVWRFILEHHHHHH
MRTVEVVGRGPAVDALAAFLADIDVSVAQPSTPADSSGDLAIVVDTVGSERFAAWNDRAKDDAIPWVAVELGGVGGVPVTDAAISGFGPETGCFDCLRTRVEATVDDTEEVTGAPAAATQRFAGALAGRLVTQFLDGDAALLGTVTELPHTQRRFLPVPGCDCGGTQGHSLGDGRQTAPDSEALSRAELGLDDRVGIATEVGEVESFPAPYYLSTLADTAGFSDVSAAAKAAGVAIDWDTAFMKALGENYERYAAGVYREGNLQHGTVADVPAAVTPDTFVRDEAEWDESHALPWVPAENLLTDEQRSLPAETVHYPPPSNAVRPATTTGLGLGNTVTEALLTGLYEVIERDAAMLSWYSTFDPLRVAIDEHEQYETLRRRATSEGLDVTALLLTQDVDVPVITVALAQDEWPRFALGTDADLNPGAAAVGALEEALQNWMELDSMGPEAAMDAQGAIGRYAKSPGEAADLTASETAVPLDSLGPDVDLSGEAELETLCDRAADAGLAPYGTRLTTRDLEQLGFEAVRVVCPSAQPLFFGESFFGERAETVPADLGFEPRLDRDHHPFP
MRVGLFTDSYFPQISGVATSIRTLALELEKLGHEVFIFTTTDPNADVDHERNIIRLQSIPFVSLAERKIVLKGVFAAYLIAKEYDLDIIHTQTEFGMGILGKMVAAQLRIPVIHTLHTKYEDYVYYIAKGRLIRPSMVKYIIRNFLRGTEAIICPSEMVLETVNSYGVTLPKRVIPTGIEIDRFKRDDIEPEETAKLRVELGLAENEIMLLSLSRIAAEKNIQAVIHALPDILEEFPVKLVIVGHGPYAENLKELVKELELTDKVVFTGPVENEKTAYYYKAADFFISASTSETQGLTYLEAMAAGTRVLAAKNPYLSELINDDEFGQLFIGDDDLAEVTKKAIRDLHPIDKDKFEKKLYEISAENFAKKVYLFYIDTIIEYNNLKSIEAERFPMKMEDTIRQMPVTVKRSLKREQIRAKYFARKASKLAKNLQSYVKIDKDKEQDLEHHHHHH
MRVITVAGPPSVGKTSVVVKTATTLAAQGHRLGIVKFDSLSTSDDQVYRRAGLPVVVGLSGNVCPDHFFVSNIDDCVDWGRTHGVDILVAESAGLCNRCSPHVQGVQAICVVDNLSGVHTPRKIGPMLKLADVVVITKGDIVSQAEREVFAYNVRLANPRAQVMQFHGITGQGASDLAARMLCAPVVDALEGRRLRFSMPSAVCPYCIGETAIGVDHQRGNVRKMSFAEPARLEHHHHHH
MRVNVPVQVPPPASPPQPSQPAGQAQGGVTAPVIKVLPGNPLPPAGSAFVDDFSSYPTGAVLPMVAPDRYGVYKAPNGTLSPAVAETFTPQGGLDKALRLEAANTAMLTTGAPDWTDYRVSFRFKYETGGTLDVGLFVHGSGDRMLIVRLGWGYTGGVHLIKVAGDQRFTLVSRRELKPLTEALKDQNWHDFAAEARSDGTVRVMVDQQTVIEWKDPDYRAGGIGIGINRLGDRIIWHIDDLKVERL
MRVVAIGVGGAGGRIVDALHEDDSTREASYLAGGSVLETDRGALAALDAVSEEDRHHFGHSGFGGDADSPRERIEALAEDDHVEMRRAVDSAITSDAAAIIVIAGVGGATGSVIAPKLTDALQRIYDRPVYAVSVLPATHEEVPPENPARAIAAFESAANAQLVFDNDAWVDDRNDVEDVTDGLNAELAMRLGALFSAGEAVTAESVGQRVVDASEVISTLDEGGLATIGFARQPLGTDGDDGSLLDRARELVGMDETTVDEVESIKAVETTLRQATNGRLTFDCPRDAARSGLLVVSGPPEWLHQTAVSDGQSWLADEIGSVQLRTGDNPMPGGDELTILVLLGGIRGAPRIKEIQAATDLEHHHHHH
MRYPESLLKLTRALSRLPGIGPKTAQRLALHLAFHKEEAEALAEALEGIKRVRACRECGNLAEGELCPICQDEDRDRSLLAVVESVADLYALERSGEFRGLYHVLGGALNPLEGIGPKELNLEGLFRRLEGVEEVVLATSMTVEGEATALYLAEELKKRGVRVTRPAYGLPVGGSLEYADEVTLGRALEGRRPV
MRYSFVIQWDFETVYTGVNSTTNLAFSVKAMTTNFANLQELQDSLVLRGQNLTTQLFWKPTVKRLVLGNNNDLTTVAKAAVGDNLFTTQANLTKSVLDQTVLKEAESRFEATVLKPFIEARQKALAEHQAHQKVLEEQRQKQLEELKQKQKEAE
MSAEEKNLIEILEEGHKVDVVKYIDYVSAPQAGAIATFSGTTRDMFEGKTVLELRYEAYVPMATRCLSSICTTARSTWDIHKIAVAHRLGPVPVGETSVLIAVSSVHRADGLDACKFLIDELKASVPIWKKEVYTNGEIWKENSEFMEKRLELAEKRDSIVKKTVVEEHRRRGCCGSKVRVEEDEEHKDITGDNKSSS
MSAIPENANVTVLNKNEKKARELIGKLGLKQIPGIIRVTFRKKDNQIYAIEKPEVFRSAGGNYVVFGEAKVDNFTQKLAAAQQQAQASGIMPSNEDVATKSPEDIQADMQAAAEGSVNAAAEEDDEEGEVDAGDLNKDDIELVVQQTNVSKNQAIKALKAHNGDLVNAIMSLSK
MSANDFKPETWTSSANEALRVSIVGENAVQFSPLFTYPIYGDSEKIYGYKDLIIHLAFDSVTFKPYVNVKYSAKLGDDNIVDVEKKLLSFLPKDDVIVRDEAKWVDCFAEERKTHNLSDVFEKVSEYSLNGEEFVVYKSSLVDDFARRMHRRVQIFSLLFIEAANYIDETDPSWQIYWLLNKKTKELIGFVTTYKYWHYLGAKSFDEDIDKKFRAKISQFLIFPPYQNKGHGSCLYEAIIQSWLEDKSITEITVEDPNEAFDDLRDRNDIQRLRKLGYDAVFQKHSDLSDEFLESSRKSLKLEERQFNRLVEMLLLLNNS

Soluble on expression in E. coli, not soluble:
MRTMVFPGSAPAYPIRYPSTMQETDSGAGPRTLRRGLMVLAALRDQGPRGLSVTDIARQTGIQRPTIYRLLAALLDAGLVVPLQGTKKYRTQLAADADLAAPDPRVRQMLPVLRRLADRTGDAVFLVVRDGDDSVSLHREIGSYPVQILATYAGKRQPLGVGSGGMALLAALPDEIAHAIVQRNSGRLDEYGGMTPQEMHRLIENTRARGYSVVGNHAVRGALGVGCALLDAQGAPVLAVSVTAIIDRMPAQRQREIAGWIGAELARLAPKA
MRVDIWSDVVCPFCYIGKKRLEHVAAEAGIELDVHWHSFELDPDAPTSHDTSNTERLAKKYGRTFEEMQEMQQNIASMAAQEGIDFQWQKANSGNSFNAHRIIHLAQSKGLGNEAEEAFFHAYMTEGLAIGEREVVEEIASRIGLDHAEVEFVLDSNELSDFVRHDEKIAHEQLNISGVPFFVFDQKLALSGAQPKEVFLQVLQKALTQRENDAVAEASSDAVCSDDSCDIPQKS
MRWWLCILVLLLAVPAQALLMPGTRVVEEHHANPFEIDVSSIDNLGDIPVDDPSDGINWSFLYLPYPNCTSGTGDATFIAVSRGSSNNILIYLEGGGACSDFYTCGMGQYVDHASCNATPTATVTTLNPNPWVVSYHYRYGIFDRANPDNPFRDWTIVFVPYSTGDVHWGNRVVKYCYYNPYNLSQVDCSINFTVHHVGFVNAITAIRWAAEQGDFDKVVIAGSSAGGYGTIVHSFYAREIFGKPILAIDDAGPGLNVNQSNFTIQMLFGIETLNETWGAYDNLPDDAQDFLGDRDPIFFVDYFLDHYPDSRFALYEDQMDYTIGVFFNGYTEEQFRDLLLNKACEIKAMHRHNFFRYLPLGTEHTILAYPWFYEKNIHNYRVYEWVWDLIKGKKRDAVELDGVRGIYLACPPGIFAKLEHHHHHH
MRYDVLARAGFARRGNLHLPHSIVETPVFMPVGTQGTMKGIVPEQLVSMDCRILLCNTYHLGHRPGHERVKAAGGLHKMMNWNRSILTDSGGFQMVSLSKLMTVDENGVNFESPHTGEMMALPPEKSIEIQQALGADIMMQLDHVIHVLTTGDIVKEAMHRSIRWLDRCKVAHTRDDQAMFPILQGGLNLELRKECAKEMAKRAKVGIAIGGLSGGEEKDHFWRVVAACCAALPPHLPRYVMGVGFPVDLVICSFLGADMFDCVYPTRTARFGTAMVRRGGLMQLNQKRYKEDFLPIDKKCECNTCKNYTRAYIHSIVGKETVGCHLVSVHNIKHQLDLMRDVRQAIQSNSVEQFLKQFLYDYYGPIQSENPSKQDSEKMREVPQWVRDAVDHMGYKLDF
MSAISSFVLECAHAGRWVRGLMALQEQHLPAEPSMRVACVALAQAAAPHSWAAALCLLRPSDALRHPQEVCKTVDTIARHAQLPIDVFESSMEALLLSLQQLSQSKSHPASGSSRQLASIGPCEALGLATPSTPIQQQVFLSATQWCGWETAARLLACLPSPLPQACVERVQELRTLRHRILHDVGPFCHWGSRAALSSVIGSAGGPLPASAQGTSLAEQLERMEPSPARRYSARDRRELSWLRDHKRQRLLQRTREEEDMLTRQAAEDVAPSALSVCAALRAVTRLPSAASVTAPHVLCRHVLTLSQSRRLTPDIALLYGRAAGLCTPHSWEATVDTLNRAEVRDARLHRQLTTWVISRGSWRAALERLSQLHRDTSSAVPQRSGNNTGDLHRGGDAAASFDCVQRTAVPASYLHRVVPQVSRPWCRLVSSRHSTASLLRQIAGALAGGVRLDEVQLSEAGKEWAANGRWEAALALYYRFPLPEFQKYATRSLVTARPALPPVPSVSHPPSSCLQIGSDPLPGSPSKDSAMFYARTVLELLVPRDGVRYDSASPPRPAPPLGTYPACLVIDAAADWSEAVAVFRACVRRGTRCNPQLLSTLMRRQDLPPQELRQILKSYPAAVNDGVRRRAKEGFGVE
MSAIWLSGAQAFCPAPASLPVAHVQRVVDGDTLRLTDGRNVRMIGLNTPETGKKGRSAEPFAEAAKKRLQALVDKSGGQISLRVGQQGKDHYGRTLANVYGRNGDNLEAQLLSEGLGYLVAVAPNVALVDCQQSAEREARQARRGVWRNSQVQPSDKLRKGGFAVVSGKVRSVQRNRGGIWIELHGSVVLRVAPDQAFRFDMAALERLKGRQIETRGWVIDRSGRGGLKAGQSRWMIALSHPAMLSLLEHHHHHH
MSAKHPIIAVTGSSGAGTTTTSEAFRKMFNMMSIKPAWVEGDSFHRFTRPEMDVEIRKAREQGRHISYFGPQANDFPTLEEFFRQYGKVGTGQVRRYLHTFDEAVPYNQMPGTFTPWQSLPENSDVLFYEGLHGGVVDGDVNVAQHVDFLIGMVPIVNLEWIQKYVRDTRDRGHSREAVMDSIVRSMDDYLKFITPQFSRTHINFQRVPTVDTSNPLNAKGIPTLDESFVVIRFRGIKNVDFPYLLAMIDGSFMSRHNTIVVPGGKMSFAMDLIVRPLLQQLIETGKIG
MSAKTKFKSPAFEPIHSAASGLFSVDAIPQETMRSFDTACLSSIKDLQPLEIKALREKLNVSQPVFARYLNTSVSTVQKWESGAKRPSGMSLKLLNVVQKHGLKVLV
MSALIVSDIDGTLIDSRERIPSAVKESLAAAQRAGVSFVVATGRPARWIHPIIDQLYTPPTLCVCANGAVIYDPACDSITHRRELAPDAMRTVVRVAREALSDLGGCGVGVERAGVSAHDMPGELFMVTPDFVHSWESIEHSTVELDRVLARSAVKLLLRNDALTSEQMHRLVAPVVPADVAHVTYSMPDGLLEVMQPGVNKSSALDVVAQDLGVDPADAIAFGDMLNDLEMIRWAGTGVAMGNACDQLQRAADVVAPTNDEAGIAVVLREWLQG
